From patent US20050261190A1 (SK, published 2005) come the findings set out here.

Assay [1] has as its target T1, polyubiquitin chains (Ub2-7), synthetic Lys48-linked (UniProt P0CG47 1-76, units linked by Lys48 isopeptide bonds).
T1 construct: A mixture of chains of 2 to 7 ubiquitin units; also called multiubiquitin chains
Briefly: GST pull-down, immunoblot with anti-ubiquitin. A general note: In western blotting, separated proteins are transferred to a membrane and probed.

Assay [2] concerns the target heat shock protein 70 inducible (Hsp70), endogenous (human, UniProt P0DMV8 2-641). Briefly: cell-based or functional assay.
In assay [3] the target is T2, heat shock protein 70 cognate (Hsc70), endogenous (human, UniProt P11142 2-646).
T2 construct: In the 1D western blots it is detected together with Hsp70 by one anti-Hsc70/Hsp70 monoclonal antibody; statements on 'Hsc70/Hsp70' are written once for each of the two; also called member of Hsc70/Hsp70
T2 sequence (P11142 2-646 limits assumed): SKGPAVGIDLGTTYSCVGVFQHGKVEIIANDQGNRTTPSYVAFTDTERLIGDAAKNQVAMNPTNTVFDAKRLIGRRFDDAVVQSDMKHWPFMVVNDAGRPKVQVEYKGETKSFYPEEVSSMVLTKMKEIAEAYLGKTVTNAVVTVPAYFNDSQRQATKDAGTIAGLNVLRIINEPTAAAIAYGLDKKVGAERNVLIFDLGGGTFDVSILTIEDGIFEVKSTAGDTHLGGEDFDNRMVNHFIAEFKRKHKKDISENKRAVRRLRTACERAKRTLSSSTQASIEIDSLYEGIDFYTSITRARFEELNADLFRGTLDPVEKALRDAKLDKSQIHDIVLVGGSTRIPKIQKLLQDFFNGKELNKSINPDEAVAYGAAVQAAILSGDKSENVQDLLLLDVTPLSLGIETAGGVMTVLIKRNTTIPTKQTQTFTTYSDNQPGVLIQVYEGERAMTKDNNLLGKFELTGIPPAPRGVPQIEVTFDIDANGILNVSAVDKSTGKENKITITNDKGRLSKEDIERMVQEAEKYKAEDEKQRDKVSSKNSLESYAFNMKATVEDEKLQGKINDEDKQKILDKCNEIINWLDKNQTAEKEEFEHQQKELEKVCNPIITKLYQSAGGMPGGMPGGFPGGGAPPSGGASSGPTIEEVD
Briefly: co-immunoprecipitation with anti-Flag M2 agarose from HEK293T lysate, 2D gel, MALDI-TOF MS (table of Flag-hFAF1 binding proteins).
From the text: Protein spots detected in the autoradiogram were cut out from the corresponding silver stained gel and subjected to in-gel digestion with trypsin and mass peptide fingerprint analyses using MALDI-TOF MS.

A further assay concerns the target bacterial Hsp70, DnaK (E. coli, UniProt P0A6Y8 2-638). Nature of the assay: not told (data not shown).

heat shock protein 70 inducible (Hsp70), endogenous, sequence (P0DMV8 2-641): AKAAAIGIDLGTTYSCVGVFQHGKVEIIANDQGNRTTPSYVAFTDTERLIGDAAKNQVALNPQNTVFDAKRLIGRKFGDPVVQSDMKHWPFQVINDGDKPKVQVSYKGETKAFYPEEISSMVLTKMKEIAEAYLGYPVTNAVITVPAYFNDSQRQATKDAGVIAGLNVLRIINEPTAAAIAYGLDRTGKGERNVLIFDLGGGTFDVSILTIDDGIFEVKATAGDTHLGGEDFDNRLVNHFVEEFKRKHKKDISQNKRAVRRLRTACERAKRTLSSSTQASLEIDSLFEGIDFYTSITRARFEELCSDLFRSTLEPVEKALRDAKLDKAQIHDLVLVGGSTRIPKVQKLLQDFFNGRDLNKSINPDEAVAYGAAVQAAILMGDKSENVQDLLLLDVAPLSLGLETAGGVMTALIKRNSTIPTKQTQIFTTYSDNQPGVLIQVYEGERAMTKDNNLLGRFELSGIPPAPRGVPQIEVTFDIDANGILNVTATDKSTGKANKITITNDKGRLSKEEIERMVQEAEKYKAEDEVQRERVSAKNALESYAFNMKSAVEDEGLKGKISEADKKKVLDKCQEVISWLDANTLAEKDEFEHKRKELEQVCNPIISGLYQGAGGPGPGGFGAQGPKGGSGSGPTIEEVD
bacterial Hsp70, DnaK, sequence (P0A6Y8 2-638 limits assumed): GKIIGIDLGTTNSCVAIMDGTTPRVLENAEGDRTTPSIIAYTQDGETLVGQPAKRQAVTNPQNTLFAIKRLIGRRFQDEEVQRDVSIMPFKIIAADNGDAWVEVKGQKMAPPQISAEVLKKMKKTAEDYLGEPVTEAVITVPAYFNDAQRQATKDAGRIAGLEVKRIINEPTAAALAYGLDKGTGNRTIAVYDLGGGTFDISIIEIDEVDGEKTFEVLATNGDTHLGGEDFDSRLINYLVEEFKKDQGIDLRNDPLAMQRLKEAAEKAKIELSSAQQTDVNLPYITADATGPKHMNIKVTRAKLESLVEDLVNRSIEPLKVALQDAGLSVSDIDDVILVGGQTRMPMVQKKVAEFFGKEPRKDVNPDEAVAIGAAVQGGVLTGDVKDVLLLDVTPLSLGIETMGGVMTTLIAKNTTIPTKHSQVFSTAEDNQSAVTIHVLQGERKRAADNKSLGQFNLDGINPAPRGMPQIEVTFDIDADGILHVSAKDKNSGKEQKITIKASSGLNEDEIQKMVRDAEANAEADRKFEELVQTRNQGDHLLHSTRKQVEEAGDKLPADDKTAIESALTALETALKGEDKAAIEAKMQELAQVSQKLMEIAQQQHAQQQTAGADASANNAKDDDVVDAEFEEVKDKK

B1: GST-hFAF1[82-650] (other)
chain: SAFRPVMPSRQIVERQPRMLDFRVEYRDRNVDVVLEDTCTVGEIKQILENELQIPVSKMLLKGWKTGDVEDSTVLKSLHLPKNNSLYVLTPDLPPPSSSSHAGALQESLNQNFMLIITHREVQREYNLNFSGSSTIQEVKRNVYDLTSIPVRHQLWEGWPTSATDDSMCLAESGLSYPCHRLTVGRRSSPAQTREQSEEQITDVHMVSDSDGDDFEDATEFGVDDGEVFGMASSALRKSPMMPENAENEGDALLQFTAEFSSRYGDCHPVFFIGSLEAAFQEAFYVKARDRKLLAIYLHHDESVLTNVFCSQMLCAESIVSYLSQNFITWAWDLTKDSNRARFLTMCNRHFGSVVAQTIRTQKTDQKPLFLIIMGKRSSNEVLNVIQGNTTVDELMMRLMAAMEIFTAQQQEDIKDGDEREARENVKREQDEAYRLSLEADRAKREAREREMAEQFRLEQIRKEQEEEREAIRLSLEQALPPEPKEENAEPVSKLRIRTPSGEFLERRFLASNKLQIVFDFVASKGFPWDEYKLLSTFPRRDVTQLDPNKSLLEVKLFPQETLFLEAKE
notes: Immobilized on glutathione sepharose; also called amino acid 82-650; not shown: glutathione S-transferase (GST) tag
Regarding B1, the binding result in assay [1] is recorded as “no binding”.

B2: Flag-hFAF1[366-650] (other, not shown: small tags and cut ends)
chain: YVKARDRKLLAIYLHHDESVLTNVFCSQMLCAESIVSYLSQNFITWAWDLTKDSNRARFLTMCNRHFGSVVAQTIRTQKTDQKPLFLIIMGKRSSNEVLNVIQGNTTVDELMMRLMAAMEIFTAQQQEDIKDGDEREARENVKREQDEAYRLSLEADRAKREAREREMAEQFRLEQIRKEQEEEREAIRLSLEQALPPEPKEENAEPVSKLRIRTPSGEFLERRFLASNKLQIVFDFVASKGFPWDEYKLLSTFPRRDVTQLDPNKSLLEVKLFPQETLFLEAKE
Turning to B2, in assay [2], the “SAPK/JNK activity after heat shock” value was 13 fold.

B3: Flag-tagged hFAF1 (human Fas associated factor 1, full form) (other)
chain: MASNMDREMILADFQACTGIENIDEAITLLEQNNWDLVAAINGVIPQENGILQSEYGGETIPGPAFNPASHPASAPTSSSSSAFRPVMPSRQIVERQPRMLDFRVEYRDRNVDVVLEDTCTVGEIKQILENELQIPVSKMLLKGWKTGDVEDSTVLKSLHLPKNNSLYVLTPDLPPPSSSSHAGALQESLNQNFMLIITHREVQREYNLNFSGSSTIQEVKRNVYDLTSIPVRHQLWEGWPTSATDDSMCLAESGLSYPCHRLTVGRRSSPAQTREQSEEQITDVHMVSDSDGDDFEDATEFGVDDGEVFGMASSALRKSPMMPENAENEGDALLQFTAEFSSRYGDCHPVFFIGSLEAAFQEAFYVKARDRKLLAIYLHHDESVLTNVFCSQMLCAESIVSYLSQNFITWAWDLTKDSNRARFLTMCNRHFGSVVAQTIRTQKTDQKPLFLIIMGKRSSNEVLNVIQGNTTVDELMMRLMAAMEIFTAQQQEDIKDGDEREARENVKREQDEAYRLSLEADRAKREAREREMAEQFRLEQIRKEQEEEREAIRLSLEQALPPEPKEENAEPVSKLRIRTPSGEFLERRFLASNKLQIVFDFVASKGFPWDEYKLLSTFPRRDVTQLDPNKSLLEVKLFPQETLFLEAKE
notes: Transiently overexpressed in HEK293T cells and pulled out of the lysate with anti-Flag M2 agarose; also called Flag-hFAF1; pFlag-CMV-2/hFAF1; not shown: Flag tag from the pFlag-CMV-2 vector
On to B3, for which the “SAPK/JNK activity after heat shock” value in assay [2] stood at 16 fold. The binding result in assay [3] is “binds”.

B4: purified recombinant hFAF1 (other)
chain: MASNMDREMILADFQACTGIENIDEAITLLEQNNWDLVAAINGVIPQENGILQSEYGGETIPGPAFNPASHPASAPTSSSSSAFRPVMPSRQIVERQPRMLDFRVEYRDRNVDVVLEDTCTVGEIKQILENELQIPVSKMLLKGWKTGDVEDSTVLKSLHLPKNNSLYVLTPDLPPPSSSSHAGALQESLNQNFMLIITHREVQREYNLNFSGSSTIQEVKRNVYDLTSIPVRHQLWEGWPTSATDDSMCLAESGLSYPCHRLTVGRRSSPAQTREQSEEQITDVHMVSDSDGDDFEDATEFGVDDGEVFGMASSALRKSPMMPENAENEGDALLQFTAEFSSRYGDCHPVFFIGSLEAAFQEAFYVKARDRKLLAIYLHHDESVLTNVFCSQMLCAESIVSYLSQNFITWAWDLTKDSNRARFLTMCNRHFGSVVAQTIRTQKTDQKPLFLIIMGKRSSNEVLNVIQGNTTVDELMMRLMAAMEIFTAQQQEDIKDGDEREARENVKREQDEAYRLSLEADRAKREAREREMAEQFRLEQIRKEQEEEREAIRLSLEQALPPEPKEENAEPVSKLRIRTPSGEFLERRFLASNKLQIVFDFVASKGFPWDEYKLLSTFPRRDVTQLDPNKSLLEVKLFPQETLFLEAKE
notes: also called hFAF1 cleaved by thrombin from GST-hFAF1
Regarding B4, the binding result in the assay with bacterial Hsp70, DnaK is listed as “binds”.
